Data reported in patent US20220177604A1 (ARGENX, published 2022).
Numbering of substitutions follows the chain as printed.

B1: 3A1 human IgG1 mAb (antibody, V domains shown)
VH: EVQVQESGGGLVQPGGSLRLSCAASGFTFDNYAMSWVRQAPGKGLEWVSAISWNGGSTYYAESMKGRFTISRDNAKNMLYLQMNSLKSEDTAVYYCAKDLLVAARGGMDYWGKGTLVTVSS
VL: SSALTQPSAVSVSLEQTARITCQGGTLGSYGAHWYQQKPGQAPVLLIYGDNSRPSGIPERFSGTRSGGTATLTISGAQAEDEADYYCQSFDYSGNAVFGGGTHLTVL
notes: human IgG1 and human light chain constant domains; also called clone 3A1
B2: 18B9 human IgG1 mAb (antibody, V domains shown)
VH: QVQLVESGGGLVQPGGSLRLSCAASGFTFSSYVMSWVRQAPGKGLEWVSSIYSDGSHTYYADSVKGRFTISRDNAKNTLYLQMNSLKSEDTAVYYCAKNLEHYSGSYYYTDPRYDYWGQGTQVTVSS
VL: SSALTQPSALSVTLGQTAKITCQGGSLGSSYVHWYQQKPGQAPVLVIYDGDSRPSGIPERFSGSSSGGTATLTISGAQAEDEDDYYCQSADSSGNAVFGGGTHLTVL
notes: human IgG1 and human light chain constant domains; also called clone 18B9
B3: 3D6 human IgG1 mAb (antibody, V domains shown)
VH: QVQLVESGGGLVQPGGSLRLSCAASGFTFSSYYMTWVRQAPGKGLEWVSSIYSDGSNTYYADSVKGRFTISRDNAKNTLHLQMNSLKSEDTAVYYCAKDLKARYSGSYHDEGYDYWGQGTQVTVSS
VL: B2 VL with S1Q, V32A, G50D, T69R, D83G, A96P, H103K
notes: human IgG1 and human light chain constant domains; also called clone 3D6
B4: 20D5 human IgG1 mAb (antibody, V domains shown)
VH: B2 VH with V2L, T28A, S35T, G66D, Y80F, N99D, L100A, H102Y, P112T, R113K
VL: B2 VL with V32A, D49A, G50D, D83G
notes: also called clone 20D5
B5: 16E4 human IgG1 mAb (antibody, V domains shown)
VH: B3 VH with Q1E, T35S, N57Y, T58A, H80Y, S107T
VL: B2 VL with T17S, S29A, S30T, V32A, H33Y, G50D, T69R, D83G, D91Y, S93N
notes: also called clone 16E4
B6: 18E2 human IgG1 mAb (antibody, V domains shown)
VH: QLQLVESGGGLVQPGGSLRLSCAASGFTFSSYVMSWVRQAPGKGLEWVSSIYHDGSHTYYADFVKGRFTISRDNAKNTLYLQMNSLKSEDTAVYYCASGTSYSGSYYYTDPFFGSWGQGTQVTVSS
VL: NFMLTQPSALSVTLGQTARITCQGDRLGSRYIYWYQQKPPQAPVLVIHDDDRRPSGIPERFSGSSSGGTATLTISGAQAEDDGDYYCQSADSSGNPVFGGGTHLTVL
notes: also called clone 18E2
B7: OmaVH15G55HW100b - VL3D28H (antibody, V domains shown)
VH: EVQLVESGGGLVQPGGSLRLSCAVSGYSITSGHRWEWIRQAPGKGLEWVASIHYDHSTNYNPSVKGRITISRDDSKNTFYLQMNSLRAEDTAVYYCARATHYFGHHHFAVWGQGTLVTVSS
VL: DIQLTQSPSSLSASVGDRVTITCRASQSVDYHGDSYMNWYQQKPGKAPKLLIEWGSYLRSGVPSRFSGSGSGTDFTLTISSLQPEDFATYYCQQNAEDPYTFGQGTKVEIK
notes: also called OmaVH15G55HW100b VL3D25H
B8: VH3D1_S35H (antibody, V domains shown)
VH: QLQVVESGGGLVQPGGSLRLSCAASGFTFSSYYMHWVRQAPGKGLEWVSSIYSDGRGSKTFYADSVKGRFTISRDNAKNTLYLQMNSLKSEDTAVYFCAKDLLVAARGSMDYWGQGTQVTVSS
VL: B1 VL with S1N, S2F, A3M
B9: VL3D1_Y49H VL3D1_Q89H (antibody, V domains shown)
VH: B8 VH with H35S
VL: B1 VL with S1N, S2F, A3M, Y48H, Q88H
B10: 18B9_VH_S35H_VL_Y49H (antibody, V domains shown)
VH: B2 VH with S35H
VL: B2 VL with Y48H
B11: VH18B9_S35H (antibody, V domains shown)
VH: B2 VH with S35H
VL: B2 VL
B12: VH18E2_S35H (antibody, V domains shown)
VH: B6 VH with S35H
VL: B6 VL
B13: VL18E2_Y34H (antibody, V domains shown)
VH: B6 VH
VL: B6 VL with Y33H
B14: 18E2_VL Y34H_MG (antibody, V domains shown)
VH: QLLESGGGLVQPGGSLRLSCAASGFTFSSYVMSWVRQAPGKGLEWVSSIYHDGSHTYYADFVKGRFTISRDNSKNTLYLQMNSLRAEDTAVYYCAKGTSYSGSYYYTDPFFGSWGQGTLVTVSS
VL: SSELTQDPAVSVALGQTVRITCQGDRLGSRYIHWYQQKPGQAPVLVIYDDDRRPSGIPDRFSGSSSGNTASLTITGAQAEDEADYYCQSADSSGNPVFGGGTQLTVL
notes: germlined clone
B15: 18B9His_MG (antibody, V domains shown)
VH: B2 VH with Q1E, V5L, A75S, K87R, S88A, Q122L
VL: B14 VL with D25G, R26S, R30S, I32V, D50G, R52S, P96A
B16: 13E4_MG (antibody, V domains shown)
VH: B6 VH with Q1E, L2V, V5L, A75S, K87R, S88A, S98K, Q121L
VL: B14 VL with D25G, R26S, R30N, I32A, H33Y, R52S, S93N, P96A
notes: germlined clone; also called germlined 13E4
B17: 18E2_H S35H_MG (antibody, V domains shown)
VH: B6 VH with Q1E, L2V, V5L, S35H, A75S, K87R, S88A, S98K, Q121L
VL: B14 VL with H33Y
notes: germlined clone
B18: 18E2His2_MG (antibody, V domains shown)
VH: B6 VH with Q1E, L2V, V5L, S35H, A75S, K87R, S88A, S98K, Q121L
VL: B14 VL
notes: also called 18E2VHS35HVLY34HMG

These binders were tested against T1, human immunoglobulin E (hIgE) (human, UniProt P01854-1 1-428) (assay: SPR competition, hIgE + mAb over hFcεRIα chip, pH 6 (text: pH 5.5)).
T1 construct: also called human IgE; Native IgE (Abcam)
T1 sequence (P01854 whole entry): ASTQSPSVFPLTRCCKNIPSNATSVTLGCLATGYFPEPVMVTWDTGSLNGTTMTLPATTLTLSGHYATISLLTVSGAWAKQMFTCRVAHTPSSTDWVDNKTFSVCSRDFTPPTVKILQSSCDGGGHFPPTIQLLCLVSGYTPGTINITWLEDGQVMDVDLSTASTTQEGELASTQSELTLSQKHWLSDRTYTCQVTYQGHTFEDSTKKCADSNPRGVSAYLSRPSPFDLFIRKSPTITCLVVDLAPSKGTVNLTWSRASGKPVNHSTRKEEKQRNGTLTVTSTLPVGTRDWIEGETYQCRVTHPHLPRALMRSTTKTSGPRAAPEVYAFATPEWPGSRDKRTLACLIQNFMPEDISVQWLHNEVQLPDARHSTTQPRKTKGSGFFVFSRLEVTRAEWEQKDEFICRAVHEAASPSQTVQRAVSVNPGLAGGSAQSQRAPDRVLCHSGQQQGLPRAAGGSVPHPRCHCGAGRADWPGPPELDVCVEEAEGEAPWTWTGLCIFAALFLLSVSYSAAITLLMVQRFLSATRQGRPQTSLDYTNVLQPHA
Description: (§1) For this purpose, a competition approach was set-up. […] The assay was performed in HBS-EP pH7.4 or HBS-EP pH 5.5. Raw data were analyzed via BIA evaluation software with a blank subtraction (2-1). […] The IC50 values of each compound were calculated with a non-linear regression (log(agonist) vs. response Variable slope (four parameters)).
Binder B1 has an IC50 of 6.91 nM. Binder B2 has an IC50 of 5.65 nM. Binder B3 has an IC50 of 8.04 nM. B4 showed an IC50 of 3.83 nM. With B5 the IC50 was 5.17 nM.

The binders below were run against T1, human immunoglobulin E (hIgE) (assay: competition ELISA, biotin-hIgE to coated hFcεRIα, pH 6).
Description: (§2) The IC50 values of each compound were calculated with a non-linear regression (log(agonist) vs. response Variable slope (four parameters)).
B1 showed an IC50 of 148 nM. Work on B2 yielded an IC50 of 112 nM. B3 showed an IC50 of 214 nM. For B4, the IC50 was 39.1 nM. With B5 the IC50 was 156 nM. B6 was tested, and the IC50 was 87.8 nM.

These binders were tested against T1, human immunoglobulin E (hIgE) (assay: SPR (Biacore), pH 6.0).
B7 was tested, and the Kd was 136 nM, the koff was 0.0648 s⁻¹ and the kon was 123000 M⁻¹ s⁻¹.

The binders below were run against T1, human immunoglobulin E (hIgE) (assay: SPR competition, hIgE over hFcεRIα chip, pH 5.5).
Description: (§3) The assay was performed in HBS-EP pH7.4 or HBS-EP pH 5.5. Raw data were analyzed via BIA evaluation software with a blank subtraction (2-1). […] The IC50 values of each compound were calculated with a non-linear regression (log(agonist) vs. response Variable slope (four parameters)).
(§4) Raw data were analyzed via BIA evaluation software with a blank subtraction (2-1). […] The IC50 values of each compound, calculated with a non-linear regression (log(agonist) vs. response Variable slope (four parameters)).
With B8 the IC50 was 23 µg/mL. For B9, the IC50 was 15.2 µg/mL. For B2, the IC50 was 1.07 µg/mL. For B10, the IC50 was 24.6 µg/mL. With B11 the IC50 was 22.3 µg/mL. B6 was tested, and the IC50 was 0.484 µg/mL. B12 gave an IC50 of 3.73 µg/mL. B13 gave an IC50 of 5.18 µg/mL.

Each binder was assayed against T1, human immunoglobulin E (hIgE) (assay: SPR competition).
Description: as §1
In the case of B1, the “Ratio pH 6/7.4 (IC50)” value is reported as 1.5. B2 was tested, and the “Ratio pH 6/7.4 (IC50)” value was 1.4. For B3, the “Ratio pH 6/7.4 (IC50)” value was 1.8. With B4 the “Ratio pH 6/7.4 (IC50)” value was 1.1. With B5 the “Ratio pH 6/7.4 (IC50)” value was 1.2.

The binders below were run against T1, human immunoglobulin E (hIgE) (assay: competition ELISA, hIgE to coated hFcεRIα, pH 6).
Description: (§5) The IC50 values of each antibody were calculated with a non-linear regression (log(agonist) vs. response Variable slope (four parameters)).
B14 gave an IC50 of 61.4 µg/mL. B15 was tested, and the IC50 was 1.74 µg/mL. For B16, the IC50 was 0.0633 µg/mL. Work on B17 yielded an IC50 of 0.671 µg/mL. B18 showed an IC50 of ~11300 µg/mL.

The binders below were run against T1, human immunoglobulin E (hIgE) (assay: competition ELISA, hIgE to coated hFcεRIα, pH 7.4).
Description: as §5
B14 showed an IC50 of 0.706 µg/mL. In the case of B15, the IC50 is reported as 0.176 µg/mL. B16 showed an IC50 of 0.0242 µg/mL. B17 showed an IC50 of 0.0657 µg/mL. Binder B18 has an IC50 of 3.91 µg/mL.

Each binder was assayed against T2, recombinant Motavizumab human IgE (rMota-hIgE) (human, UniProt P01854 1-428) (assay: hIgE binding ELISA, pH 5.5).
T2 construct: also called Recombinant IgE (argenx)
T2 sequence (P01854 other isoform, or with tags, fused parts or gaps limits assumed, form in doubt): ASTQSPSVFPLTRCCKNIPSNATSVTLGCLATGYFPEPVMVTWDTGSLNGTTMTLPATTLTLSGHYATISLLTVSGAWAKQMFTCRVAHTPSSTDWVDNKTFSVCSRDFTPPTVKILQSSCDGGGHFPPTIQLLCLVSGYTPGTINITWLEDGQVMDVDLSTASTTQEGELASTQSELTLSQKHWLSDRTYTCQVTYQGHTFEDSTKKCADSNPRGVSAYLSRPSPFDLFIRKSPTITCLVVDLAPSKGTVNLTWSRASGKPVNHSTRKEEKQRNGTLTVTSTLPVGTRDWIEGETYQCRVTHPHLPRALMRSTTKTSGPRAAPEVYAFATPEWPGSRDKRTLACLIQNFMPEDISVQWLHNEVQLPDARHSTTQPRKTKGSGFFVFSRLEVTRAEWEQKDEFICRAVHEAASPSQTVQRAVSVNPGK
Description: (§6) Briefly a Maxisorp plate was coated with recombinant human respiratory syncytial virus protein F (RSV-F) (0.5 μg/mL), then blocked with PBS with 3% BSA and 0.05% Tween. […] After several washing steps at pH 7.4 or pH 5.5, detection of the bound mAbs was carried out with an anti-human Fc-HRP antibody.
With B7 the EC50 was 0.13 µg/mL.

The binders below were run against T1, human immunoglobulin E (hIgE) (assay: SPR (Biacore), pH 7.4).
In the case of B7, the Kd is reported as 15.2 nM, the koff is reported as 0.00303 s⁻¹ and the kon is reported as 200000 M⁻¹ s⁻¹.

The binders below were run against T1, human immunoglobulin E (hIgE) (assay: SPR competition, hIgE over hFcεRIα chip, pH 7.4).
Description: as §3, §4
For B8, the IC50 was 15.5 µg/mL. Work on B9 yielded an IC50 of 4.41 µg/mL. Binder B2 has an IC50 of 0.662 µg/mL. In the case of B10, the IC50 is reported as 26.3 µg/mL. B11 was tested, and the IC50 was 21.7 µg/mL. B6 gave an IC50 of 0.628 µg/mL. B12 showed an IC50 of 0.811 µg/mL. In the case of B13, the IC50 is reported as 1.1 µg/mL.

Each binder was assayed against T2, recombinant Motavizumab human IgE … (assay: hIgE binding ELISA, pH 7.4).
Description: as §6
B7 gave an EC50 of 0.0135 µg/mL.

What follows are binders tested against T1, human immunoglobulin E (hIgE) (assay: competition ELISA).
Description: as §2
With B1 the “Ratio pH 6/7.4 (IC50)” value was 1. B2 was tested, and the “Ratio pH 6/7.4 (IC50)” value was 2.7. For B3, the “Ratio pH 6/7.4 (IC50)” value was 2.8. For B4, the “Ratio pH 6/7.4 (IC50)” value was 1.1. In the case of B5, the “Ratio pH 6/7.4 (IC50)” value is reported as 2.7. In the case of B6, the “Ratio pH 6/7.4 (IC50)” value is reported as 2.4.

What follows are binders tested against T2, recombinant Motavizumab human IgE … (assay: hIgE binding ELISA).
Description: as §6
In the case of B7, the “Ratio EC50 pH 5.5/7.4” value is reported as 9.6 and the “Ratio EC50 pH 7.4/5.5” value is reported as 0.1.

What follows are binders tested against T1, human immunoglobulin E (hIgE) (assay: competition ELISA, hIgE to hFcεRIα).
Binder B7 has an IC50 of 172 nM.

These binders were tested against T1, human immunoglobulin E (hIgE) (assay: competition ELISA, biotin-hIgE to coated hFcεRIα, pH 7.4).
Description: as §2
For B1, the IC50 was 152 nM. In the case of B2, the IC50 is reported as 41.9 nM. Binder B3 has an IC50 of 75.4 nM. In the case of B4, the IC50 is reported as 35.2 nM. Binder B5 has an IC50 of 58 nM. B6 was tested, and the IC50 was 36.9 nM.

What follows are binders tested against T1, human immunoglobulin E (hIgE) (assay: SPR (Biacore)).
For B7, the “Ratio pH 7.4/pH6.0 (of KD)” value was 9.

What follows are binders tested against T1, human immunoglobulin E (hIgE) (assay: SPR competition, hIgE + mAb over hFcεRIα chip, pH 7.4).
Description: as §1
With B1 the IC50 was 4.76 nM. Work on B2 yielded an IC50 of 4.09 nM. B3 showed an IC50 of 4.37 nM. Binder B4 has an IC50 of 3.38 nM. For B5, the IC50 was 4.25 nM.
